In assay [1] the target is cynomolgus monkey CD47 recombinant protein (cynomolgus monkey). Briefly: ELISA. In general terms: ELISA stands for enzyme-linked immunosorbent assay.
Assay [2] concerns the target human CD47 recombinant protein (human) (UniProt Q08722). Briefly: ELISA.
UniProt Q08722, sequence (Q08722 19-323): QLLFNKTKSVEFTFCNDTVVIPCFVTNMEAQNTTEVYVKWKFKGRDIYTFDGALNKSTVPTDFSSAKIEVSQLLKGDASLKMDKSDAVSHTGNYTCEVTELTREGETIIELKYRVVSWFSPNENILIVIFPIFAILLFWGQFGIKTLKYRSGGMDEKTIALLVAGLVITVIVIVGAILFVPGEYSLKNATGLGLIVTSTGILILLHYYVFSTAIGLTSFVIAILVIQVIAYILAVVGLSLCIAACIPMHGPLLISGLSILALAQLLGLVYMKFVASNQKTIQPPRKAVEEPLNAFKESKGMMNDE

For the substance HX009 (bispecific antibody), the EC50 – broadly, the midpoint of the concentration-response curve – in assay [1] was 1020 pM; in assay [2], 590 pM.

These data come from paper PMC11567960.
